{"source": "patent US20170247452A1", "about": "(MacroGenics, published 2017)", "binders": {"B1": {"name": "DART-A (CD19×CD3 bi-specific monovalent Fc diabody) (bispecific antibody)", "chain 1": "ENVLTQSPATLSVTPGEKATITCRASQSVSYMHWYQQKPGQAPRLLIYDASNRASGVPSRFSGSGSGTDHTLTISSLEAEDAATYYCFQGSVYPFTFGQGTKLEIKGGGSGGGGEVQLVESGGGLVQPGGSLRLSCAASGFTFSTYAMNWVRQAPGKGLEWVGRIRSKYNNYATYYADSVKGRFTISRDDSKNSLYLQMNSLKTEDTAVYYCVRHGNFGNSYVSWFAYWGQGTLVTVSSASTKGEVAACEKEVAALEKEVAALEKEVAALEKGGGDKTHTCPPCPAPEAAGGPSVFLFPPKPKDTLMISRTPEVTCVVVDVSHEDPEVKFNWYVDGVEVHNAKTKPREEQYNSTYRVVSVLTVLHQDWLNGKEYKCKVSNKALPAPIEKTISKAKGQPREPQVYTLPPSREEMTKNQVSLWCLVKGFYPSDIAVEWESNGQPENNYKTTPPVLDSDGSFFLYSKLTVDKSRWQQGNVFSCSVMHEALHNHYTQKSLSLSPGK", "chain 2": "QAVVTQEPSLTVSPGGTVTLTCRSSTGAVTTSNYANWVQQKPGQAPRGLIGGTNKRAPWTPARFSGSLLGGKAALTITGAQAEDEADYYCALWYSNLWVFGGGTKLTVLGGGGSGGGGQVTLRESGPALVKPTQTLTLTCTFSGFSLSTSGMGVGWIRQPPGKALEWLAHIWWDDDKRYNPALKSRLTISKDTSKNQVFLTMTNMDPVDTATYYCARMELWSYYFDYWGQGTTVTVSSASTKGKVAACKEKVAALKEKVAALKEKVAALKE", "chain 3": "not shown"}}, "experiment_in_all_cases": "cell-based or functional assay", "key": {"[1]": {"biological_target": "T1, human CD19 on cells (CD20+ gated blood B cells; Raji/GF, HBL-2, Jeko-1 cells; CLL B cells) (human, UniProt P15391 20-556)", "T1 sequence (looked up)": "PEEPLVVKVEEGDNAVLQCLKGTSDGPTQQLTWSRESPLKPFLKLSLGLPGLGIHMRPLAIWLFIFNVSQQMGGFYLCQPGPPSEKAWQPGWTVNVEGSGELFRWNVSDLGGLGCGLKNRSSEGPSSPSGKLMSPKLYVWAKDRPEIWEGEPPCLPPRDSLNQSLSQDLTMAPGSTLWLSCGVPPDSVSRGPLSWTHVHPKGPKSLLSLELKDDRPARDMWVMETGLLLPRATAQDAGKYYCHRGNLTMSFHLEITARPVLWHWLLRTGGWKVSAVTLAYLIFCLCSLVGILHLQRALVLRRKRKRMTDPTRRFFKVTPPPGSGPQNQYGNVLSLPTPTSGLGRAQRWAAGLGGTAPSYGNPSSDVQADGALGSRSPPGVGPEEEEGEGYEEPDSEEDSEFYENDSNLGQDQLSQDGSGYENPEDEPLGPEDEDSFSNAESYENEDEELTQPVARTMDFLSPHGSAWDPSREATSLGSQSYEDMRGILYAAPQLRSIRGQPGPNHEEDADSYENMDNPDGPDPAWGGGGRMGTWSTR"}, "[2]": {"biological_target": "T1, human CD19 on cells (CD20+ gated blood …)", "remark": "listed apart in the source"}, "[3]": {"biological_target": "T1, human CD19 on cells (CD20+ gated blood …)", "remark": "listed apart in the source"}, "[4]": {"biological_target": "T1, human CD19 on cells (CD20+ gated blood …)", "remark": "listed apart in the source"}, "[5]": {"biological_target": "T1, human CD19 on cells (CD20+ gated blood …)", "remark": "listed apart in the source"}, "[6]": {"biological_target": "T2, cynomolgus monkey CD19 on CD20+ gated blood B cells (cynomolgus monkey, UniProt A0A2K5W8L9 20-557)", "T2 sequence": "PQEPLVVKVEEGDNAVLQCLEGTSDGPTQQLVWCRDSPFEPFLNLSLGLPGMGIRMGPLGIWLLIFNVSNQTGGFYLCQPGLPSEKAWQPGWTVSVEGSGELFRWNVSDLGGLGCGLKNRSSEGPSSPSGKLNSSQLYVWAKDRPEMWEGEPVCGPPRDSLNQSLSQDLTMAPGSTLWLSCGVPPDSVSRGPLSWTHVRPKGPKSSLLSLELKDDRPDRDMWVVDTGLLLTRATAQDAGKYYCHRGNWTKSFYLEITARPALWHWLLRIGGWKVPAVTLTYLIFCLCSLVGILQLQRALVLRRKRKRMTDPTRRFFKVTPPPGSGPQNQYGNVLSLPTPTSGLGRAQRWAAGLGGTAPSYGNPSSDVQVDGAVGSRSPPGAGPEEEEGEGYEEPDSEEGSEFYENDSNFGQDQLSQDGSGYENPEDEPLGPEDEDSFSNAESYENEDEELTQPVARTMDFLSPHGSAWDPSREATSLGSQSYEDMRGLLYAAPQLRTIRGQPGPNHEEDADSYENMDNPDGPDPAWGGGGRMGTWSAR"}, "[7]": {"biological_target": "T1, human CD19 on cells (CD20+ gated blood …)", "remark": "listed apart in the source"}}, "data": [{"binder": "B1", "values": [{"measurement": "EC50, redirected killing of Raji/GF cells, 24 hours, E:T = 5:1", "setting": "[1]", "result": 0.67, "unit": "pM"}, {"measurement": "EC50, redirected killing of Raji/GF cells, 24 hours, E:T = 10:1", "setting": "[1]", "result": 0.14, "unit": "pM"}, {"measurement": "EC50, redirected killing of Raji/GF cells, 48 hours, E:T = 2.5:1", "setting": "[1]", "result": 1.08, "unit": "pM"}, {"measurement": "EC50, redirected killing of Raji/GF cells, 48 hours, E:T = 5:1", "setting": "[1]", "result": 0.38, "unit": "pM"}, {"measurement": "EC50, redirected killing of Raji/GF cells, 48 hours, E:T = 10:1", "setting": "[1]", "result": 0.0441, "unit": "pM"}, {"measurement": "EC50, IFN-γ production, human T cells with Raji/GF cells, donor D44284, E:T = 10:1", "setting": "[2]", "result": 2.44, "unit": "pM"}, {"measurement": "EC50, IFN-γ production, human T cells with Raji/GF cells, donor D47067, E:T = 10:1", "setting": "[2]", "result": 8.58, "unit": "pM"}, {"measurement": "EC50, IL-2 production, human T cells with Raji/GF cells, donor D44284, E:T = 10:1", "setting": "[2]", "result": 1.33, "unit": "pM"}, {"measurement": "EC50, IL-2 production, human T cells with Raji/GF cells, donor D47067, E:T = 10:1", "setting": "[2]", "result": 11.3, "unit": "pM"}, {"measurement": "EC50, TNF-α production, human T cells with Raji/GF cells, donor D44284, E:T = 10:1", "setting": "[2]", "result": 0.626, "unit": "pM"}, {"measurement": "EC50, TNF-α production, human T cells with Raji/GF cells, donor D47067, E:T = 10:1", "setting": "[2]", "result": 6.79, "unit": "pM"}, {"measurement": "EC50, cytotoxicity against Raji/GF target cells with cynomolgus monkey PBMCs as effector cells (E:T = 30:1)", "setting": "[3]", "result": 0.013, "unit": "pM"}, {"measurement": "average EC50 of redirected killing of HBL-2 cells, human T cells, E:T 10:1", "setting": "[3]", "result": 0.105, "unit": "pM"}, {"measurement": "average EC50 of redirected killing of Jeko-1 cells, human T cells, E:T 10:1", "setting": "[3]", "result": 0.146, "unit": "pM"}, {"measurement": "average EC50 of redirected killing of Raji/GF cells, human T cells, E:T 10:1", "setting": "[3]", "result": 0.307, "unit": "pM"}, {"measurement": "mean EC50, IFN-γ release, human T cells with Raji/GF cells (n = 2)", "setting": "[4]", "result": 5.51, "unit": "pM"}, {"measurement": "mean EC50, IL-2 release, human T cells with Raji/GF cells (n = 2)", "setting": "[4]", "result": 6.32, "unit": "pM"}, {"measurement": "mean EC50, TNF-α release, human T cells with Raji/GF cells (n = 2)", "setting": "[4]", "result": 3.71, "unit": "pM"}, {"measurement": "mean EC50, cytotoxicity, HBL-2 (n = 5), CTL assay", "setting": "[4]", "result": 0.11, "unit": "pM"}, {"measurement": "mean EC50, cytotoxicity, Jeko-1 (n = 3), CTL assay", "setting": "[4]", "result": 0.15, "unit": "pM"}, {"measurement": "mean EC50, cytotoxicity, Raji/GF (n = 5), CTL assay", "setting": "[4]", "result": 0.31, "unit": "pM"}, {"measurement": "EC50, redirected killing of Raji/GF cells, 72 hours, E:T = 1:1", "setting": "[5]", "result": 2.79, "unit": "pM"}, {"measurement": "EC50, redirected killing of Raji/GF cells, 72 hours, E:T = 2.5:1", "setting": "[5]", "result": 1.54, "unit": "pM"}, {"measurement": "EC50, redirected killing of Raji/GF cells, 96 hours, E:T = 1:1", "setting": "[5]", "result": 0.44, "unit": "pM"}, {"measurement": "EC50, redirected killing of Raji/GF cells, 96 hours, E:T = 2.5:1", "setting": "[5]", "result": 0.422, "unit": "pM"}, {"measurement": "EC50, autologous B cell depletion in cynomolgus monkey PBMCs, Cyno 5 (E:T = 3:1)", "setting": "[6]", "result": 166, "unit": "pM"}, {"measurement": "EC50, autologous B cell depletion in cynomolgus monkey PBMCs, Cyno 6 (E:T = 2:1)", "setting": "[6]", "result": 859, "unit": "pM"}, {"measurement": "EC50, autologous B cell depletion in cynomolgus monkey PBMCs, Cyno 7 (E:T = 3:1)", "setting": "[6]", "result": 107, "unit": "pM"}, {"measurement": "EC50, autologous B cell depletion in cynomolgus monkey PBMCs, Cyno 8 (E:T = 7:1)", "setting": "[6]", "result": 239, "unit": "pM"}, {"measurement": "mean EC50, autologous B cell depletion in cynomolgus monkey PBMCs", "setting": "[6]", "result": 343, "unit": "pM"}, {"measurement": "EC50, autologous B cell depletion in human PBMCs, Human 5 (E:T = 8:1)", "setting": "[7]", "result": 6.27, "unit": "pM"}, {"measurement": "EC50, autologous B cell depletion in human PBMCs, Human 6 (E:T = 8:1)", "setting": "[7]", "result": 2.75, "unit": "pM"}, {"measurement": "EC50, autologous B cell depletion in human PBMCs, Human 7 (E:T = 5:1)", "setting": "[7]", "result": 5.52, "unit": "pM"}, {"measurement": "EC50, autologous B cell depletion in human PBMCs, Human 8 (E:T = 9:1)", "setting": "[7]", "result": 1.84, "unit": "pM"}, {"measurement": "mean EC50, autologous B cell depletion in human PBMCs", "setting": "[7]", "result": 4.2, "unit": "pM"}]}]}
